± gives the uncertainty stated by the source.

The data set can be described thus: abundance fitness (aPCA) (normalised: wild type 0, dead -1); higher = more abundant; growth selection in yeast, the domain comes from the species named. Particulars: Homo sapiens.
The substance “DnaJ homolog subfamily B member 1 A12C, P25685” registered an abundance fitness of -0.213 ± 0.14.
On to “DnaJ homolog subfamily B member 1 A12D, P25685”, for which the abundance fitness is -0.38 ± 0.11.
The figure for “DnaJ homolog subfamily B member 1 A12E, P25685” is -0.277 ± 0.13; for “DnaJ homolog subfamily B member 1 A12F, P25685” it is -0.346 ± 0.092.
In the case of “DnaJ homolog subfamily B member 1 A12G, P25685”, the abundance fitness is -0.421 ± 0.1.
Consider “DnaJ homolog subfamily B member 1 A12H, P25685”, for which the abundance fitness was -0.175 ± 0.15.
Substance “DnaJ homolog subfamily B member 1 A12I, P25685” yielded an abundance fitness of -0.163 ± 0.11.
The substance “DnaJ homolog subfamily B member 1 A12K, P25685” displayed an abundance fitness of -0.02 ± 0.077.
“DnaJ homolog subfamily B member 1 A12L, P25685” had an abundance fitness of -0.179 ± 0.068.
With “DnaJ homolog subfamily B member 1 A12M, P25685”, the abundance fitness is -0.139 ± 0.067.
The same measure for “DnaJ homolog subfamily B member 1 A12N, P25685”: -0.147 ± 0.089; for “DnaJ homolog subfamily B member 1 A12P, P25685”: -0.108 ± 0.12; for “DnaJ homolog subfamily B member 1 A12Q, P25685”: -0.094 ± 0.094.
“DnaJ homolog subfamily B member 1 A12R, P25685” gave an abundance fitness of -0.147 ± 0.07.
In turn, “DnaJ homolog subfamily B member 1 A12S, P25685” showed an abundance fitness of -0.191 ± 0.078.
Consider “DnaJ homolog subfamily B member 1 A12T, P25685”, for which the abundance fitness was -0.28 ± 0.088.
For the substance “DnaJ homolog subfamily B member 1 A12V, P25685”, the abundance fitness is -0.145 ± 0.08.
The figure for “DnaJ homolog subfamily B member 1 A12Y, P25685” is -0.559 ± 0.46; for “DnaJ homolog subfamily B member 1 A15C, P25685” it is -0.056 ± 0.14; for “DnaJ homolog subfamily B member 1 A15D, P25685” it is -0.502 ± 0.092.
The figure for “DnaJ homolog subfamily B member 1 A15E, P25685” is -0.481 ± 0.068.
“DnaJ homolog subfamily B member 1 A15F, P25685” had an abundance fitness of -0.814 ± 0.13.
Consider “DnaJ homolog subfamily B member 1 A15H, P25685”, for which the abundance fitness is -0.866 ± 0.15.
The same measure for “DnaJ homolog subfamily B member 1 A15I, P25685”: -0.69 ± 0.14.
The same measure for “DnaJ homolog subfamily B member 1 A15K, P25685”: -0.818 ± 0.096.
In the case of “DnaJ homolog subfamily B member 1 A15L, P25685”, the abundance fitness is -0.801 ± 0.071.
The same measure for “DnaJ homolog subfamily B member 1 A15M, P25685”: -0.627 ± 0.1; for “DnaJ homolog subfamily B member 1 A15N, P25685”: -0.668 ± 0.14.
For the substance “DnaJ homolog subfamily B member 1 A15P, P25685”, the abundance fitness was -0.702 ± 0.098.
As for “DnaJ homolog subfamily B member 1 A15Q, P25685”, the abundance fitness is -0.648 ± 0.12.
The same measure for “DnaJ homolog subfamily B member 1 A15R, P25685”: -0.82 ± 0.055.
The substance “DnaJ homolog subfamily B member 1 A15S, P25685” registered an abundance fitness of -0.109 ± 0.074.
“DnaJ homolog subfamily B member 1 A15T, P25685”: the abundance fitness was -0.271 ± 0.078.
“DnaJ homolog subfamily B member 1 A15W, P25685” yielded an abundance fitness of -1.17 ± 0.085.
The substance “DnaJ homolog subfamily B member 1 A15Y, P25685” came in with an abundance fitness of -1 ± 0.16.
The substance “DnaJ homolog subfamily B member 1 A23C, P25685” yielded an abundance fitness of -0.169 ± 0.11.

(Values after the Human Domainome abundance scans (Beltran et al. 2025).)
